This test addresses T1, Recombinant NT antigen (N-terminal pro-brain natriuretic peptide, NT-proBNP) (human, UniProt P16860 27-102).
T1 construct: domain: N-terminal pro-brain natriuretic peptide (NT-proBNP); also called recombinant NT protein; N-terminal pro-B-type natriuretic peptide
T1 sequence (looked up): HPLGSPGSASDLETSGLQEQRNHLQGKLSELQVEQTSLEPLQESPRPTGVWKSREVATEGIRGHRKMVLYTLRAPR
Briefly: indirect ELISA, KD calculated from half-max OD at 4 coating concentrations. The protocol:
Recombinant NT antigen was diluted with coating solution to 1 μg/ml a microplate overnight at 4° C.; which was washed twice with washing solution and patted dry on the next day; with addition of blocking solution (20% BSA+80% PBS) at 120 μL per well at 37° C. for 1 h and patted dry; added the diluted NT monoclonal antibody, 100 μL/well at 37° C. for 30 min (partial supernatant for 1 h); washed 5 times with washing solution and patted dry; added rabbit anti-goat IgG-HRP […] per well at 37° C. for 30 min; washed 5 times with washing solution and patted dry; added color developing solution A (50 μL/well), added color developing solution B (50 μL/well) for 10 min; added stop solution, 50 μL/well; followed by reading the OD value at 450 nm (reference 630 nm) on the microplate reader.
Data from the enzyme immunoassay indirect method were analyzed in the same way as the activity identification, with four gradients of 3 μg/ml, 1.5 μg/ml, 0.75 μg/ml and 0.375 μg/ml for coating; the antibody was diluted from 1000 ng/ml by 2 times to 0.977 ng/ml for loading sample. OD values corresponding to different antibody concentrations at different coating concentrations were obtained. Under the same coating concentration, data were plotted logarithmically with the antibody concentration as the abscissa and the OD value as the ordinate.

B1: Mutation 1-2 (antibody, V domains shown)
VH: QVRLQESGPSQVKPAQTLSLTCAISGFSITTYYVDWVRHTPGKPPEWLAQMTKDGNAVHQPTLRSRLSITRDTSKSQVFLKLTGVTTEDTAVYYCVRGLIDWGPGLLVTVSS
VL: QAVLTQPSSVSRSLGQTVSITCSGSSDQVGFGDYINWFQLIPGSAPKTLIFGATSRVRGVPDRFSGSRSGNTATLTINSLQAEDEADYYCGSANSRGGYVFGSGTRLTVLS
Turning to B1, the equilibrium dissociation constant (Kd) is 2.61 nM.

B2: WT 1-9 (antibody, V domains shown)
VH: QVRLQESGPSQVKPAQTLSLTCAISGPSVTTYYIDWVRHTPGKPPEWLAQMTKDANAVHQPTLRSRLSITRDTSKSQVFLKLTGVTTEDTAVYYCVKGLIDWGPGLLVTVSS
V domain: QAVLTQPSSVSRSLGQTVSITCSGSSDNVGPGDYVNWFQLIPGSAPKTLIFAAYSRLRGVPDRFSGSRSGNTATLTINSLQAEDEADYYCGSGNSRGGYVWGSGTRLTVLS
On to B2, for which the Kd is 2.47 nM.

B3: Mutation 1-16 (antibody, V domains shown)
VH: QVRLQESGPSQVKPAQTLSLTCAISGFSVTTYYLDWVRHTPGKPPEWLAQMTKDGNAVHQPTVRSRLSITRDTSKSQVFLKLTGVTTEDTAVYYCVRGVIDWGPGLLVTVSS
VL: QAVLTQPSSVSRSLGQTVSITCSGSSDNVGFGDYLNWFQLIPGSAPKTLIFGATSRLRGVPDRFSGSRSGNTATLTINSLQAEDEADYYCGSGNSRGGYVFGSGTRLTVLS
Turning to B3, the Kd is 3.27 nM.

B4: Mutation 1-12 (antibody, V domains shown)
VH: QVRLQESGPSQVKPAQTLSLTCAISGFSLTTYYIDWVRHTPGKPPEWLAQMTKDGNAVHQPTIRSRLSITRDTSKSQVFLKLTGVTTEDTAVYYCVRGIIDWGPGLLVTVSS
VL: QAVLTQPSSVSRSLGQTVSITCSGSSDQVGFGDYVNWFQLIPGSAPKTLIFGAYSRIRGVPDRFSGSRSGNTATLTINSLQAEDEADYYCGSPNSRGGYVFGSGTRLTVLS
As for B4, the Kd is 2.75 nM.

B5: Mutation 1-33 (antibody)
heavy: QVRLQESGPSQVKPAQTLSLTCAISGFSVTTYYIDWVRHTPGKPPEWLAQMTKDGNAVHQPTLRSRLSITRDTSKSQVFLKLTGVTTEDTAVYYCVRGLIDFGPGLLVTVSSASTTPPKVYPLTSCCGDTSSSIVTLGCLVSSYMPEPVTVTWNSGALTSGVHTFPAILQSSGLYSLSSVVTVPASTSGAQTFICNVAHPASSTKVDKRVEPGCPDPCKHCRCPPPELPGGPSVFIFPPKPKDTLTISGTPEVTCVVVDVGQDDPEVQFSWFVDNVEVRTARTKPREEQFNSTFRVVSALPIQHQDWTGGKEFKCKVHNEGLPAPIVRTISRTKGQAREPQVYVLAPPQEELSKSTLSVTCLVTGFYPDYIAVEWQKNGQPESEDKYGTTTSQLDADGSYFLYSRLRVDKNSWQEGDTYACVVMHEALHNHYTQKSISKPPGK
light: QAVLTQPSSVSRSLGQTVSITCSGSSDQVGFGDYINWFQLIPGSAPKTLIFGAYSRIRGVPDRFSGSRSGNTATLTINSLQAEDEADYYCGSANSRGGYVFGSGTRLTVLSQPKSAPSVTLFPPSKEELDTNKATVVCLISDFYPGSVNVVWKADGSTINQNVKTTQASKQSNSKYAASSYLTLTGSEWKSKSSYTCEVTHEGSTVTKTVKPSECS
B5: the Kd was 2.6 nM.

B6: Mutation 1-26 (antibody, V domains shown)
VH: QVRLQESGPSQVKPAQTLSLTCAISGFSVTTYYVDWVRHTPGKPPEWLAQMTKDGNAVHQPTLRSRLSITRDTSKSQVFLKLTGVTTEDTAVYYCVRGLIDWGPGLLVTVSS
VL: QAVLTQPSSVSRSLGQTVSITCSGSSDQVGFGDYVNWFQLIPGSAPKTLIFGASSRVRGVPDRFSGSRSGNTATLTINSLQAEDEADYYCGSANSRGGYVFGSGTRLTVLS
On to B6, for which the Kd was 1.51 nM.

B7: Mutation 1-38 (antibody, V domains shown)
VH: QVRLQESGPSQVKPAQTLSLTCAISGFSITTYYVDWVRHTPGKPPEWLAQMTKDGNAVHQPTLRSRLSITRDTSKSQVFLKLTGVTTEDTAVYYCVRGLIDWGPGLLVTVSS
VL: QAVLTQPSSVSRSLGQTVSITCSGSSDQVGFGDYINWFQLIPGSAPKTLIFGATSRVRGVPDRFSGSRSGNTATLTINSLQAEDEADYYCGSGNSRGGYVFGSGTRLTVLS
Regarding B7, the Kd is 1.82 nM.

B8: Mutation 1-24 (antibody, V domains shown)
VH: QVRLQESGPSQVKPAQTLSLTCAISGFSVTTYYIDWVRHTPGKPPEWLAQMTKDGNAVHQPTIRSRLSITRDTSKSQVFLKLTGVTTEDTAVYYCVRGIIDWGPGLLVTVSS
VL: QAVLTQPSSVSRSLGQTVSITCSGSSDQVGFGDYVNWFQLIPGSAPKTLIFGASSRIRGVPDRFSGSRSGNTATLTINSLQAEDEADYYCGSPNSRGGYVFGSGTRLTVLS
For B8, the dissociation constant Kd was 1.17 nM.

B9: Mutation 1-28 (antibody, V domains shown)
VH: QVRLQESGPSQVKPAQTLSLTCAISGFSITTYYLDWVRHTPGKPPEWLAQMTKDGNAVHQPTVRSRLSITRDTSKSQVFLKLTGVTTEDTAVYYCVRGVIDWGPGLLVTVSS
VL: QAVLTQPSSVSRSLGQTVSITCSGSSDNVGFGDYLNWFQLIPGSAPKTLIFGASSRLRGVPDRFSGSRSGNTATLTINSLQAEDEADYYCGSGNSRGGYVFGSGTRLTVLS
Regarding B9, the Kd is 2.25 nM.

B10: Mutation 1-4 (antibody, V domains shown)
VH: QVRLQESGPSQVKPAQTLSLTCAISGFSLTTYYLDWVRHTPGKPPEWLAQMTKDGNAVHQPTVRSRLSITRDTSKSQVFLKLTGVTTEDTAVYYCVRGVIDWGPGLLVTVSS
VL: QAVLTQPSSVSRSLGQTVSITCSGSSDNVGFGDYLNWFQLIPGSAPKTLIFGAYSRLRGVPDRFSGSRSGNTATLTINSLQAEDEADYYCGSGNSRGGYVFGSGTRLTVLS
In the case of B10, the Kd is 2.07 nM.

B11: Mutation 1-21 (antibody)
heavy: QVRLQESGPSQVKPAQTLSLTCAISGFSLTTYYIDWVRHTPGKPPEWLAQMTKDGNAVHQPTLRSRLSITRDTSKSQVFLKLTGVTTEDTAVYYCVRGLIDFGPGLLVTVSSASTTPPKVYPLTSCCGDTSSSIVTLGCLVSSYMPEPVTVTWNSGALTSGVHTFPAILQSSGLYSLSSVVTVPASTSGAQTFICNVAHPASSTKVDKRVEPGCPDPCKHCRCPPPELPGGPSVFIFPPKPKDTLTISGTPEVTCVVVDVGQDDPEVQFSWFVDNVEVRTARTKPREEQFNSTFRVVSALPIQHQDWTGGKEFKCKVHNEGLPAPIVRTISRTKGQAREPQVYVLAPPQEELSKSTLSVTCLVTGFYPDYIAVEWQKNGQPESEDKYGTTTSQLDADGSYFLYSRLRVDKNSWQEGDTYACVVMHEALHNHYTQKSISKPPGK
light: QAVLTQPSSVSRSLGQTVSITCSGSSDQVGFGDYINWFQLIPGSAPKTLIFGAYSRIRGVPDRFSGSRSGNTATLTINSLQAEDEADYYCGSANSRGGYVFGSGTRLTVLSQPKSAPSVTLFPPSKEELDTNKATVVCLISDFYPGSVNVVWKADGSTINQNVKTTQASKQSNSKYAASSYLTLTGSEWKSKSSYTCEVTHEGSTVTKTVKPSECS
Regarding B11, the Kd was 2.53 nM.

B12: Mutation 1-14 (antibody, V domains shown)
VH: QVRLQESGPSQVKPAQTLSLTCAISGFSLTTYYVDWVRHTPGKPPEWLAQMTKDGNAVHQPTLRSRLSITRDTSKSQVFLKLTGVTTEDTAVYYCVRGLIDWGPGLLVTVSS
VL: QAVLTQPSSVSRSLGQTVSITCSGSSDQVGFGDYINWFQLIPGSAPKTLIFGAYSRVRGVPDRFSGSRSGNTATLTINSLQAEDEADYYCGSANSRGGYVFGSGTRLTVLS
B12: the Kd is 0.875 nM.

B13: Mutation 1-42 (antibody, V domains shown)
VH: QVRLQESGPSQVKPAQTLSLTCAISGFSVTTYYIDWVRHTPGKPPEWLAQMTKDGNAVHNPTVRSRLSITRDTSKSQVFLKLTGVTTEDTAVYYCVRGIIDWGPGLLVTVSS
VL: QAVLTQPSSVSRSLGQTVSITCSGSSDNVGFGDYINWFQLIPGSAPKTLIFGASSRIRGVPDRFSGSRSGNTATLTINSLQAEDEADYYCGSGNSRGGYVFGSGTRLTVLS
In the case of B13, the Kd is 2.22 nM.

B14: WT 1-3 (antibody)
heavy: QVRLQESGPSQVKPAQTLSLTCAISGPSITTYYLDWVRHTPGKPPEWLAQMTKDANAVHQPTIRSRLSITRDTSKSQVFLKLTGVTTEDTAVYYCVKGLIDFGPGLLVTVSSASTTPPKVYPLTSCCGDTSSSIVTLGCLVSSYMPEPVTVTWNSGALTSGVHTFPAILQSSGLYSLSSVVTVPASTSGAQTFICNVAHPASSTKVDKRVEPGCPDPCKHCRCPPPELPGGPSVFIFPPKPKDTLTISGTPEVTCVVVDVGQDDPEVQFSWFVDNVEVRTARTKPREEQFNSTFRVVSALPIQHQDWTGGKEFKCKVHNEGLPAPIVRTISRTKGQAREPQVYVLAPPQEELSKSTLSVTCLVTGFYPDYIAVEWQKNGQPESEDKYGTTTSQLDADGSYFLYSRLRVDKNSWQEGDTYACVVMHEALHNHYTQKSISKPPGK
light: QAVLTQPSSVSRSLGQTVSITCSGSSDNVGPGDYVNWFQLIPGSAPKTLIFAATSRIRGVPDRFSGSRSGNTATLTINSLQAEDEADYYCGSANSRNYVWGSGTRLTVLSQPKSAPSVTLFPPSKEELDTNKATVVCLISDFYPGSVNVVWKADGSTINQNVKTTQASKQSNSKYAASSYLTLTGSEWKSKSSYTCEVTHEGSTVTKTVKPSECS
For B14, the dissociation constant (Kd) is 2.53 nM.

B15: WT 1-8 (antibody, V domains shown)
VH: QVRLQESGPSQVKPAQTLSLTCAISGPSLTTYYVDWVRHTPGKPPEWLAQMTKDANAVHQPTVRSRLSITRDTSKSQVFLKLTGVTTEDTAVYYCVKGIIDWGPGLLVTVSS
V domain: QAVLTQPSSVSRSLGQTVSITCSGSSDNVGPGDYINWFQLIPGSAPKTLIFAAYSRVRGVPDRFSGSRSGNTATLTINSLQAEDEADYYCGSPNSRNYVWGSGTRLTVLS
In the case of B15, the dissociation constant Kd was 4.78 nM.

What is called Kd is the equilibrium constant for the complex coming apart.

Values taken from patent US20220025008A1 (FAPON BIOTECH, published 2022).
